The target of assay [1] is full length human DPEP-1 displayed on HEK293T / HEK293-6E cells (human) (UniProt P16444). In words: flow cytometry, biotinylated negative control VHH at 100 nM on HEK-293T cells overexpressing human DPEP-1, streptavidin-PE; the same number stands in all seven panels.
Assay [2] has as its target T1, recombinant human DPEP-1 ectodomain (human, UniProt P16444 17-385, chemically biotinylated with NHS-LC-LC-Biotin in the SPR assay).
T1 construct: range 17-385; The limits 17-385 are given for the immunogen; also called hDPEP-1 ectodomain; hDPEP-1 ECD
T1 sequence (looked up): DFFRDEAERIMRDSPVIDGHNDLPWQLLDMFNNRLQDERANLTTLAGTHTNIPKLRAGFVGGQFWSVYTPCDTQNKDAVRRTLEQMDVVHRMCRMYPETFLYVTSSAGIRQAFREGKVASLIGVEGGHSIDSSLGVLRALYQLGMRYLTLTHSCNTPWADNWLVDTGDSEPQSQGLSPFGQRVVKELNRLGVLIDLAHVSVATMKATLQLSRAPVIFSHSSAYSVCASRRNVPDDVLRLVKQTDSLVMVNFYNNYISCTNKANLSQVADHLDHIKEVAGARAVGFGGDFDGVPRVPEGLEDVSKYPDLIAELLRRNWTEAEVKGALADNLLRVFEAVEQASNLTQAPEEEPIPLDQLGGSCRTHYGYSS
Briefly: SPR single-cycle kinetics; biotinylated h-DPEP1 captured on the chip, VHH flowed over; 1:1 binding model, 25 C; one replicate of three [con't]. The protocol: (§1) Recombinant human DPEP-1 was biotinylated as described in Example 3 and captured on CM5 sensorchip surfaces using Biotin CAPture reagent followed by flowing over surfaces VHHs at concentrations ranging from 0.625-10 nM (sdABP02), 2.5-40 nM (sdABP03/05/07), 6.25-100 nM (sdABP06) and 12.5-200 nM (sdABP01/04). Dark lines represent data points, light lines fit to the data. Data were generated in triplicates and data for one replicate set are shown.
(§2) The binding affinity of DPEP-1-specific VHHs was analyzed by surface plasmon resonance (SPR). Recombinant human DPEP-1 (hDPEP-1) ectodomain was chemically biotinylated using EZ-Link™ NHS-LC-LC-Biotin (Thermo Fisher, Cat #21343) following manufacturer instructions. Biotinylated recombinant hDPEP-1 ectodomain was then captured on CM5 sensorchip surfaces using Biotin CAPture reagent followed by flowing over surfaces VHHs at concentrations ranging from 0.625-10 nM (sdABP02), 2.5-40 nM (sdABP03/05/07), 6.25-100 nM (sdABP06) and 12.5-200 nM (sdABP01/04). Dark lines represent data points, light lines fit to the data. Data were generated in triplicates. Diagonal lines represent equilibrium dissociation constants, KDs. KD values (mean±SD) obtained in FIG. 2A are shown in Table 4. sdABP01 binding data gave poor fit to the 1:1 binding model. As a result, its KD could not be determined with certainty. A better fit was observed using the heterogeneous ligand binding model.

In assay [3] the target is T2, full length human DPEP-1 displayed on HEK293T / HEK293-6E cells (human, UniProt P16444 17-385).
T2 construct: whole, on cells; GPI-anchored on the cell surface; also called hDPEP-1
T2 sequence (looked up): T1 sequence (looked up)
Briefly: flow cytometry on human DPEP-1-expressing cells, monomeric VHH (Table 8 restating Table 5). Here is the method: (§3) VHH concentrations at 50% binding, EC₅₀ values, were calculated from graphs and recorded in Table 5.
(§4) Binding of biotinylated VHHs to hDPEP-1 was detected using streptavidin-phycoerythrin (SPE). The binding profile of the anti-DPEP-1 rabbit pAb (Proteintech, Cat #12222-1-AP) positive control is shown as inset. Binding of the rabbit pAb was detected using goat anti-rabbit IgG antibody conjugated to phycoerythrin (Thermo Fisher, Cat #P-2771MP). Graphs in FIG. 3B with similar maximal fluorescence plateau are grouped together and shown in FIG. 3C (A20.1 VHH is shown for comparison). Three independent experiments were performed and data were collected on a Beckman CytoFLEX Analyzer followed by analysis with FlowJo v10.6.2 (TreeStar). EC₅₀ values were calculated from FIG. 3C and recorded in Table 5. Based on the binding measured by flow cytometry, four affinity groups may be identified: medium (sdABP01/03), high (sdABP02/04/07), high-very high (sdABP05), and very high (sdABP06).

Assay [4] has as its target T1, recombinant human DPEP-1 ectodomain. In words: SPR, single-cycle kinetics, biotinylated hDPEP-1 ectodomain captured, VHH flowed; mean ± SD of triplicates. Here is the method:
as §2
On the technique in general: In SPR one partner is held on a chip, and binding of the other changes the refractive index at the surface.

The target in assay [5] is T2, full length human DPEP-1 displayed on …. In words: flow cytometry, biotinylated VHH titrated on HEK-293-6E cells overexpressing hDPEP-1. Here is the method: as §3, §4
For orientation: In flow cytometry, cells or beads pass a laser one at a time.

Assay [6] has as its target T1, recombinant human DPEP-1 ectodomain. Briefly: SPR single-cycle kinetics; biotinylated h-DPEP1 captured on the chip, VHH flowed over; 1:1 binding model, 25 C; one replicate of three. Here is the method: as §1, §2

In the case of “Clostridium difficile toxin A-specific A20.1 VHH”, in assay [1], the geometric mean fluorescence intensity (number above the histogram) worked out at 106.

B1: sdABP07 (VHH with BAP and His6 tags) (VHH)
VHH: EVQLVESGGGLVEYGGSLRLSCAASESTLDNYAIAWFRQAPGKEREVVSCVGKSGGRSDYADSVKGRFTISRDNAKNTVYLQMNSLKPEDTAVYSCAARRVWFGGCVLGTSQGQYDYWGQGTQVTVSS
modifications: biotin on the Biotinylation Acceptor Peptide in the flow cytometry and immunoprecipitation assays
notes: Monomeric llama VHH with BAP and His6; also called sdAb07
A word on the Kd: it is a measure of binding affinity in units of concentration. In general, koff refers to a measure of how fast the partners let go of each other. What is called kon is the rate constant with which the complex forms. In general, EC50 refers to the concentration that produces a half-maximal response. Turning to B1, in assay [2], the equilibrium dissociation constant (Kd) was 5.05 nM, the off-rate (koff) was determined as 0.00835 s⁻¹ and the on-rate constant (kon) came to 1.65e+06 M⁻¹ s⁻¹. The same molecule registered a concentration giving a half-maximal response (EC50) in assay [3] of 15 nM. Further, the Kd in assay [4] is 5.09 nM. This molecule also displayed an EC50 in assay [5] of 15 nM.

B2: sdABP05 (VHH with BAP and His6 tags) (VHH)
VHH: EVQLVESGGGLVQPGGSLRLSCAASGFTFSTYAMTWVRKAPGKGFEWISSIDSGGGVTLYADSVKGRFTISKDNAKNTLYLQMNNLKPDDTAVYYCVKNYGSTSLQSRGQGTQVTVSS
modifications: biotin on the Biotinylation Acceptor Peptide in the flow cytometry and immunoprecipitation assays
notes: Monomeric llama VHH with BAP and His6; also called sdAb05
For B2, in assay [6], the dissociation constant (Kd) turned out to be 12.8 nM, the off-rate constant (koff) worked out at 0.0276 s⁻¹ and the association rate constant (kon) was found to be 2.15e+06 M⁻¹ s⁻¹. Also, the EC50 in assay [3] came to 5.3 nM. Besides, the equilibrium dissociation constant (Kd) in assay [4] came out at 10.6 nM. This molecule gave a concentration for a half-maximal effect (EC50) in assay [5] of 5.3 nM.

B3: sdABP03 (VHH with BAP and His6 tags) (VHH)
VHH: EVQLVESGGGLVQPGGSLRLSCATSEFTLDYYAIGWFRQAPGKEREGVSCISSSGGTTNYADSVKGRFTISSDNAKNTVSLQMNSLRPEDTAVYYCAAARVSAYYLGNYGCLNAEYGYWGQGTQVTVSS
modifications: biotin on the Biotinylation Acceptor Peptide in the flow cytometry and immunoprecipitation assays
notes: Monomeric llama VHH with BAP and His6; also called sdAb03
In the case of B3, in assay [2], the dissociation constant Kd came to 26.9 nM, the koff amounted to 0.0605 s⁻¹ and the kon was found to be 2.25e+06 M⁻¹ s⁻¹. For the same molecule, the EC50 in assay [3] was 550 nM. The Kd in assay [4] is 27 nM. For the same molecule, the EC50 in assay [5] was 550 nM.

B4: sdABP06 (VHH with BAP and His6 tags) (VHH)
VHH: EVQLVDSGGGLVQPGGSLRLSCAASGFTFSNYDMSWVRQGPGKGPEWVSIISYVGGLTRYSDSVKGRFTISRDNAKNTLYLQMNSLNTEDTALYYCARVKSMHPTSTTGEYDYRGRGTQVTVSS
modifications: biotin on the Biotinylation Acceptor Peptide in the flow cytometry and immunoprecipitation assays
notes: Monomeric llama VHH with BAP and His6; also called sdAb06
Turning to B4, the Kd in assay [2] was 5.91 nM; in assay [4], 6.32 nM. Moreover, the off-rate constant (koff) in assay [2] stood at 0.00103 s⁻¹. Moreover, in assay [2], the association rate constant (kon) came to 175000 M⁻¹ s⁻¹. The EC50 in assay [3] and in assay [5] was 0.96 nM each time.

The record behind these values is US20240254259A1 (NATIONAL RESEARCH COUNCIL CANADA, published 2024).
